Assays:
[1] = system: Nc1nc2c(ncn2[C@@H]2O[C@H](COP(=O)(O)OP(=O)(O)OP(=O)(O)O)[C@@H](O)[C@H]2O)c(=O)[nH]1; experiment: fluorescence of iodine-oxidised neopterin product; type: biochemical, Plasmodium falciparum; settings: 50 mM Tris–HCl pH 7.8, 100 mM KCl, 20% glycerol, 37°C
[2] = target: T1, Plasmodium falciparum Δ1-195 GCH1 (core GCH1) (Plasmodium falciparum, UniProt Q8I5H7); experiment: fluorescence of iodine-oxidised neopterin product; initial velocity at various GTP concentrations; type: biochemical; settings: GTP as substrate; called competitive by the authors
T1 construct: gene PF3D7_1224000; C-terminal core domain, residues 196-389 (N-terminal 1-195 deleted); pET45b(+), E. coli BL21(DE3)RIL, Ni-sepharose purified (His tag); homodecamer
T1 sequence (Q8I5H7 entry or part of it, stated change not applied): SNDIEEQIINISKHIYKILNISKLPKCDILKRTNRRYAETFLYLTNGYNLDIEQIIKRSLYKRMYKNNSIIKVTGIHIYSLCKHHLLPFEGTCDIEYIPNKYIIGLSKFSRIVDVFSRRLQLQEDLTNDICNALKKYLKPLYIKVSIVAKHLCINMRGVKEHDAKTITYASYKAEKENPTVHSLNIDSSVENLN

Row | Molecule | Km [1] [µM] | kcat [1] [s⁻¹] | fluorescence of iodine-oxidised neopterin product; initial velocity at various G [2]
1 | Plasmodium falciparum Δ1-195 GCH1 (core GCH1) (Plasmodium falciparum 3D7) | 12.06 | 0.039 | –
2 | Nc1nc2c([nH]c(=O)n2[C@@H]2O[C@H](COP(=O)(O)OP(=O)(O)OP(=O)(O)O)[C@@H](O)[C@H]2O)c(=O)[nH]1 [8-oxo-GTP] | – | – | 8-oxo-GTP could inhibit the activity of P. falciparum GCH1 with reduced fluorescent signal
